Experimental findings from publication doi:10.1101/2021.11.05.467508v1 are described below.

Substrate in the series: NC(=O)c1ccc[n+]([C@@H]2O[C@H](COP(=O)(O)OP(=O)(O)OC[C@H]3O[C@@H](n4cnc5c(N)ncnc54)[C@H](O)[C@@H]3O)[C@@H](O)[C@H]2O)c1
In words: dot blot saturation kinetics, Michaelis-Menten fit. Type of series: biochemical, Oryza sativa. The settings on record: H3K9Ac of histone H3 (constant), 0-600 μM NAD+, pH 7.5, 37 °C.

B1: OsSRT1_cc (CC) (Oryza sativa Indica Group) (protein)
chain: KHLVVFTGAGISTSSGIPDFRGPKGVWTLQRSGKGVPGASLPFHRAVPTLTHMALVELEKTGRLKFVISQNVDSLHLRSGLPREKLAELHGNSFKEICPSCKKEYLRDFEIETIGLKDTPRRCSDKNCGARLKDTVLDWEDALPPEEMDAAKEQCQTADLVLCLGTSLQITPACNMPLLSLKNGGRVAIVNLQATPKDKKASLVIHGLVDK
A word on the Km: it is the substrate concentration at which the rate is half of its maximum. The term kcat denotes the maximal rate divided by the concentration of active sites. B1: the Km came to 256 ± 21 µM and the kcat came out at 0.03432 ± 0.00127 s⁻¹.

B2: ΔC1 (Oryza sativa Indica Group) (protein)
chain: MSLGYAEKLSYREDVGNVGMPEIFDSPELLHKKIEELAVMVRESKHLVVFTGAGISTSSGIPDFRGPKGVWTLQRSGKGVPGASLPFHRAVPTLTHMALVELEKTGRLKFVISQNVDSLHLRSGLPREKLAELHGNSFKEICPSCKKEYLRDFEIETIGLKDTPRRCSDKNCGARLKDTVLDWEDALPPEEMDAAKEQCQTADLVLCLGTSLQITPACNMPLLSLKNGGRVAIVNLQATPKDKKASLVIHGLVDK
Take B2: the Km was determined as 299 ± 43 µM and the kcat came to 0.02 ± 0.0014 s⁻¹.

B3: ΔN1 (Oryza sativa Indica Group) (protein)
chain: KHLVVFTGAGISTSSGIPDFRGPKGVWTLQRSGKGVPGASLPFHRAVPTLTHMALVELEKTGRLKFVISQNVDSLHLRSGLPREKLAELHGNSFKEICPSCKKEYLRDFEIETIGLKDTPRRCSDKNCGARLKDTVLDWEDALPPEEMDAAKEQCQTADLVLCLGTSLQITPACNMPLLSLKNGGRVAIVNLQATPKDKKASLVIHGLVDKVIAGVMYMMNLRIPPYIRTDFVQISLRNSVKKKCVRWTLRVTSIHGLRAPLPFLRSVEVSFPERPDMKPVVLKEQPFSLQRETSMNRPFVMLLTFNFSDGCGCSSSSIEWPVDFLKQKDSFVRDRSLVLQELQHAAEHRSRAGQHAILEREGVPRAETSIHALVTNIVRYDTEDSKAAVPMATWMNSNGSLSKRHMDAIGCNPASSKKQKLVATRHRRKGLNPATQKV
For B3, the Km turned out to be 175 ± 27 µM and the catalytic constant (kcat) came to 0.0617 ± 0.00367 s⁻¹.
